The record followed here is article PMC2706102 (Nature structural & molecular biology, 2009).

This series concerns the molecule itself. Nature of the series: HPLC sedimentation assay of aggregation.

B1: Q35P10 (peptide)
peptide: KKQQQQQQQQQQQQQQQQQQQQQQQQQQQQQQQQQQQPPPPPPPPPPKK
For the protein B1, the binding result was “binds”.

B2: Q35 (peptide)
peptide: KKQQQQQQQQQQQQQQQQQQQQQQQQQQQQQQQQQQQKK
Turning to B2, the binding result was “binds”.
